{
  "source": "paper PMC8249609",
  "about": "(Cell Research, 2021)",
  "binders": {"B1": {"name": "cartilage oligomeric matrix protein with a C-terminal His-tag (COMP-His) (natural protein)", "chain": "not shown", "notes": "cartilage oligomeric matrix protein, mouse, cDNA NM_016685.2; secreted into the conditioned medium of Sf9 cells; also called purified COMP; pentameric COMP protein"}},
  "key": {"[1]": {"molecular_target": "the molecule itself", "experiment": "native gel or EMSA; COMP-RLuc; 6% native PAGE without SDS and β-mercaptoethanol is the paper's method for the pentameric form of COMP; shown in Supplementary Fig. S11a"}, "[2]": {"molecular_target": "B1", "experiment": "SPR; BiaCore 8 K; AT1 amine-coupled to a CM5 chip (~4500 RU); analyte in two-fold dilutions (COMP 0.43–110 nM), 120 s association, 200 s dissociation; 10 mM HEPES pH 7.4, 150 mM NaCl, 0.05% P20, 0.01% DDM, 0.002% CHS; 1:1 binding model", "settings": "both partners purified"}, "YFP-tagged AT1 receptor [3]": {"molecular_target": "T1, YFP-tagged AT1 receptor ( (human AT1 or mouse AT1a …, UniProt P30556 1-359))", "T1 construct": "also called AT1-YFP; Flag-tagged AT1-YFP; source: HEK293T, transfected, in cells", "T1 sequence (looked up)": "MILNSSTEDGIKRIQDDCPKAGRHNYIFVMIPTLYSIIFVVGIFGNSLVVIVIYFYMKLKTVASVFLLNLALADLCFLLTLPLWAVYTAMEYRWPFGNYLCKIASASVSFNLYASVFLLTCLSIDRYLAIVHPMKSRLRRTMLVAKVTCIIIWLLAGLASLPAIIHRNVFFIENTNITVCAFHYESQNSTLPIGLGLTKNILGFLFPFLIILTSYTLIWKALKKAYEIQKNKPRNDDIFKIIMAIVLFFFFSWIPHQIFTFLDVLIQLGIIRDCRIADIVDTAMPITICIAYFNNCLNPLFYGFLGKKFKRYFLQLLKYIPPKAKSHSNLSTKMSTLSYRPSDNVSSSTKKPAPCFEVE", "experiment": "FRET or BRET; as a12, cells pre-incubated with purified COMP (100 nM) for 30 min before AngII", "settings": "partners not purified"}, "YFP-tagged AT1 receptor [4]": {"molecular_target": "T1, YFP-tagged AT1 receptor", "experiment": "FRET or BRET; HEK293T cells co-transfected with AT1-YFP and β-arrestin-1-RLuc or β-arrestin-2-RLuc; vehicle, then increasing AngII for 5 min; BRET ratio YFP/RLuc", "settings": "partners not purified"}, "[5]": {"molecular_target": "T2, MBP-fusion protein of the COMP EGF domain (mouse, UniProt Q9R0G6 84-261)", "T2 construct": "cartilage oligomeric matrix protein, mouse, EGF repeat domain; Vector pMAL-p5x; also called MBP-COMP-EGF; source: E. coli BL21, purified", "T2 sequence (looked up)": "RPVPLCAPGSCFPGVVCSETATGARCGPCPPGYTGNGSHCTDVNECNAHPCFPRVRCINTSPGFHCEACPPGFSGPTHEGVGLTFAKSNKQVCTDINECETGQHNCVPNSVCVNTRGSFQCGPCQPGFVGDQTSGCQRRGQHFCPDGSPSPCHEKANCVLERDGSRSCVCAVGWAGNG", "experiment": "pull-down; MBP fusion proteins of COMP domains and GST-fused AT1a N-terminus, equimolar, 4 °C 2 h; amylose resin; western blot with anti-GST", "settings": "both partners purified"}, "[6]": {"molecular_target": "the molecule itself", "experiment": "SEC + native gel or EMSA; purified COMP; gel filtration chromatography and non-reduced native PAGE followed by western blotting; pentamer"}},
  "data": [
    {"binder": "mouse COMP fused with the modified Renilla luciferase at the C-terminus (natural protein, cartilage oligomeric matrix protein, mouse; also called COMP-RLuc; source: HEK293T, transfected; not shown: RLuc (modified Renilla luciferase), C-terminal, kept) not shown", "values": [
      {"measurement": "stoichiometry N", "setting": "[1]", "value": 5}
    ]},
    {"binder": "AT1 receptor, residues 1-318, with N-terminal Flag-tag and BRIL (Flag-BRIL-AT1) (receptor, UniProt P30556 1-318, looked up, Order on the chain as printed: Flag-tag, BRIL, AT1; Detergent-solubilised (DDM/CHS in the running buffer); also called purified AT1 receptor; AngII type 1 receptor) MILNSSTEDGIKRIQDDCPKAGRHNYIFVMIPTLYSIIFVVGIFGNSLVVIVIYFYMKLKTVASVFLLNLALADLCFLLTLPLWAVYTAMEYRWPFGNYLCKIASASVSFNLYASVFLLTCLSIDRYLAIVHPMKSRLRRTMLVAKVTCIIIWLLAGLASLPAIIHRNVFFIENTNITVCAFHYESQNSTLPIGLGLTKNILGFLFPFLIILTSYTLIWKALKKAYEIQKNKPRNDDIFKIIMAIVLFFFFSWIPHQIFTFLDVLIQLGIIRDCRIADIVDTAMPITICIAYFNNCLNPLFYGFLGKKFKRYFLQLLK", "values": [
      {"measurement": "Kd", "setting": "[2]", "value": "1.42 ± 0.014", "unit": "nM"}
    ]},
    {"binder": "β-arrestin-1 fused with Renilla luciferase (natural protein, UniProt P49407 1-418, looked up, β-arrestin-1; also called β-arrestin-1-RLuc; source: HEK293T, transfected, in cells) MGDKGTRVFKKASPNGKLTVYLGKRDFVDHIDLVDPVDGVVLVDPEYLKERRVYVTLTCAFRYGREDLDVLGLTFRKDLFVANVQSFPPAPEDKKPLTRLQERLIKKLGEHAYPFTFEIPPNLPCSVTLQPGPEDTGKACGVDYEVKAFCAENLEEKIHKRNSVRLVIRKVQYAPERPGPQPTAETTRQFLMSDKPLHLEASLDKEIYYHGEPISVNVHVTNNTNKTVKKIKISVRQYADICLFNTAQYKCPVAMEEADDTVAPSSTFCKVYTLTPFLANNREKRGLALDGKLKHEDTNLASSTLLREGANREILGIIVSYKVKVKLVVSRGGLLGDLASSDVAVELPFTLMHPKPKEEPPHREVPENETPVDTNLIELDTNDDDIVFEDFARQRLKGMKDDKEEEEDGTGSPQLNNR", "values": [
      {"measurement": "EC50 of AngII for the recruitment (BRET), with 100 nM COMP", "setting": "YFP-tagged AT1 receptor [3]", "value": 2.16, "unit": "nM"},
      {"measurement": "EC50 of AngII for the recruitment (BRET), vehicle", "setting": "YFP-tagged AT1 receptor [4]", "value": 0.89, "unit": "nM"}
    ]},
    {"binder": "MALNSSTEDGIKRIQDDCPRAGRHSYI (domain or fragment, UniProt P29754 1-27, looked up, also called GST-fused N-terminus of AT1a; source: purified (vector pGEX-6P-1; host not clearly stated))", "note": "[GST-fused N-terminus of mouse AT1a receptor (aa 1-27)]", "values": [
      {"measurement": "binding result", "setting": "[5]", "value": "binds"}
    ]},
    {"binder": "B1", "values": [
      {"measurement": "stoichiometry N", "setting": "[6]", "value": 5}
    ]}
  ]
}
